The RNAGym collection of RNA variant scans (doi:10.7554/elife.80360)

B1: Hairpin Ribozyme (parent)
chain: GUCCUCUUUCACGUGCGCGUGAAAGAGAGAAGUGAACCAGAGAAACACACGUUGUGGUAUAUUACCUGGUA

Variants of: B1
Experiment: self-cleavage, relative activity (ratio to wild type); higher = more cleavage; co-transcriptional
A47G U70G showed a self-cleavage of 0.115. With A47G U70C the self-cleavage was 0.1. In the case of A47C A64C, the self-cleavage is reported as 0.233. In the case of A47C A64G, the self-cleavage is reported as 0.265. C48G U62A showed a self-cleavage of 0.0564. For A47G U58A, the self-cleavage was 0.221. In the case of C48U G69A, the self-cleavage is reported as 0.178. Variant C48A U62C has a self-cleavage of 0.207. With C48U U55A the self-cleavage was 0.196. With C48U U55G the self-cleavage was 0.223. Work on C48G U52C yielded a self-cleavage of 0.218. In the case of C48G U52A, the self-cleavage is reported as 0.135. C46U G69U gave a self-cleavage of 0.172. Work on C46U G69A yielded a self-cleavage of 0.123. For A47U G57C, the self-cleavage was 0.157. Variant C46G G57C has a self-cleavage of 0.0539. C46G G57A showed a self-cleavage of 0.0965. C46G C48G showed a self-cleavage of 0.0704. C48U G68A gave a self-cleavage of 0.244. Work on C48U G68C yielded a self-cleavage of 0.247. Work on C48G C66U yielded a self-cleavage of 0.156. For A47G A49G, the self-cleavage was 0.129. A47G A49C showed a self-cleavage of 0.307. With A47C U55G the self-cleavage was 0.136. With A47U C48U the self-cleavage was 0.112. A47U C48A showed a self-cleavage of 0.157. A47U U63A gave a self-cleavage of 0.114. A47U U63G gave a self-cleavage of 0.0673. For A47G, the self-cleavage was 0.162. Work on A47U yielded a self-cleavage of 0.154. Variant A47C has a self-cleavage of 0.335. In the case of C48A C66U, the self-cleavage is reported as 0.202. Work on C48A C66G yielded a self-cleavage of 0.245. With A47G C48U the self-cleavage was 0.185. Work on A47U G56C yielded a self-cleavage of 0.125. Variant A47U G56A has a self-cleavage of 0.187. C46G U67A gave a self-cleavage of 0.094. For C48U A64G, the self-cleavage was 0.0861. Variant C48U A64C has a self-cleavage of 0.255. C48U A64U showed a self-cleavage of 0.11. Variant C48G G51A has a self-cleavage of 0.172. With A47U U70C the self-cleavage was 0.0521. Variant C48A C50U has a self-cleavage of 0.131. For C48A C50A, the self-cleavage was 0.188. With C46U G68C the self-cleavage was 0.123. Variant C46U G56U has a self-cleavage of 0.0878. With C46U U52G the self-cleavage was 0.197. C46U U70G gave a self-cleavage of 0.189. Work on C46U U70A yielded a self-cleavage of 0.255. C46U G54C showed a self-cleavage of 0.149. Variant C48A U60C has a self-cleavage of 0.208. A47C G57C gave a self-cleavage of 0.0853. In the case of A47C G57U, the self-cleavage is reported as 0.275. A47C U62C showed a self-cleavage of 0.187. In the case of A47G A71U, the self-cleavage is reported as 0.221. Variant A47G A71C has a self-cleavage of 0.599. A47G C65A showed a self-cleavage of 0.0744. Work on A47C G68C yielded a self-cleavage of 0.195. A47C G68A showed a self-cleavage of 0.268. Work on C48G A59G yielded a self-cleavage of 0.129. For A47G U53A, the self-cleavage was 0.176. A47G U53C gave a self-cleavage of 0. In the case of C48A A64U, the self-cleavage is reported as 0.0412. Variant A47G C50U has a self-cleavage of 0.101. With C48U A59G the self-cleavage was 0.121. C48U A59C showed a self-cleavage of 0.222. With C48U A61C the self-cleavage was 0.128. In the case of C48U A71C, the self-cleavage is reported as 0.387. Work on C48U A71U yielded a self-cleavage of 0.146. A47G A64U showed a self-cleavage of 0.167. With A47C G54A the self-cleavage was 0.208. With C48U C65U the self-cleavage was 0.154. Variant A47U A49G has a self-cleavage of 0.161. In the case of C48G U70A, the self-cleavage is reported as 0.144. For C48G U70G, the self-cleavage was 0.0256. A47G G57U gave a self-cleavage of 0.179. For C46G A71U, the self-cleavage was 0.211. Work on A47C U52C yielded a self-cleavage of 0.376. With A47C U52G the self-cleavage was 0.231. A47C C50U showed a self-cleavage of 0.303. Variant A47G G56U has a self-cleavage of 0.169. For C48U G56U, the self-cleavage was 0.231. Work on C48A U53C yielded a self-cleavage of 0.18. Variant A47C A71U has a self-cleavage of 0.147. For A47C A71G, the self-cleavage was 0.344. With A47G G51A the self-cleavage was 0.15. Variant C48A G69A has a self-cleavage of 0.173. For C48A G69U, the self-cleavage was 0.121. In the case of A47U U58C, the self-cleavage is reported as 0.133. A47U U58G gave a self-cleavage of 0.137. In the case of C46U U62A, the self-cleavage is reported as 0.148. C48A U55A gave a self-cleavage of 0.228. With C48A U55G the self-cleavage was 0.251. C46G G56A gave a self-cleavage of 0.127. Work on C46G G56C yielded a self-cleavage of 0.123. In the case of C46G G56U, the self-cleavage is reported as 0.173. C46U A61U gave a self-cleavage of 0.267. For C48G A61G, the self-cleavage was 0.131. With C48G A61C the self-cleavage was 0.0868. C48A G57U showed a self-cleavage of 0.115. With C48G A49C the self-cleavage was 0.223. C48A U70A showed a self-cleavage of 0.209. C48A U70G showed a self-cleavage of 0.144. With A47G U52A the self-cleavage was 0.0547. For C48A A61C, the self-cleavage was 0.201. Variant C48G U55A has a self-cleavage of 0.148. A47U U67G gave a self-cleavage of 0.185. In the case of A47U U67C, the self-cleavage is reported as 0.0849. With A47C A59U the self-cleavage was 0.112. Variant A47C A59C has a self-cleavage of 0.19. For A47C U70C, the self-cleavage was 0.298. With C46G U62C the self-cleavage was 0.249. With C46G U62G the self-cleavage was 0.14. C46U U58G showed a self-cleavage of 0.0629. A47C A61C gave a self-cleavage of 0.152. Work on C48G C50A yielded a self-cleavage of 0.0785. With C48G C50G the self-cleavage was 0.137. Variant C48G C50U has a self-cleavage of 0.177. Work on A47G C66U yielded a self-cleavage of 0.239. In the case of C48U G57A, the self-cleavage is reported as 0.147. For C46U A64U, the self-cleavage was 0.198. For A47G U67C, the self-cleavage was 0.129. In the case of A47G U67A, the self-cleavage is reported as 0.136. With C46U A59G the self-cleavage was 0.112. With C46U A59U the self-cleavage was 0.149. A47C C66U showed a self-cleavage of 0.155. Work on A47C C66G yielded a self-cleavage of 0.17. In the case of C46G U55C, the self-cleavage is reported as 0.151. For A47U U62G, the self-cleavage was 0.158. A47U A71C gave a self-cleavage of 0.304. With C46U U60G the self-cleavage was 0.223. For C46G C65G, the self-cleavage was 0.078. Variant A47C U58A has a self-cleavage of 0.316. In the case of C48G A71U, the self-cleavage is reported as 0.14. C48G A71C gave a self-cleavage of 0.231. For A47C A49U, the self-cleavage was 0.171. In the case of C46U A71U, the self-cleavage is reported as 0.121. C46G A64U gave a self-cleavage of 0.185. A47C U60A showed a self-cleavage of 0.219. A47C U60G gave a self-cleavage of 0.324. C46G G69U showed a self-cleavage of 0.105. A47G G54U showed a self-cleavage of 0.163. Work on A47C C65U yielded a self-cleavage of 0.219. C48G U63G showed a self-cleavage of 0.0813. With C48A U52A the self-cleavage was 0.233. Variant C48G U58G has a self-cleavage of 0.0532. In the case of C48A A59C, the self-cleavage is reported as 0.139. C48A A59U gave a self-cleavage of 0.121. In the case of C48A A59G, the self-cleavage is reported as 0.219. C46U U67C showed a self-cleavage of 0.11. In the case of C46U U67A, the self-cleavage is reported as 0.0755. For A47C G56A, the self-cleavage was 0.233. For A47G G69A, the self-cleavage was 0.0811. Variant A47U A59U has a self-cleavage of 0.194. A47C G69C gave a self-cleavage of 0.196. C46U C65A showed a self-cleavage of 0.184. Variant A47G G68U has a self-cleavage of 0.104. For A47G G68C, the self-cleavage was 0.143. In the case of C48G G68C, the self-cleavage is reported as 0.189. Work on C46U G57A yielded a self-cleavage of 0.186. With C46U G57C the self-cleavage was 0.0631. C46U G57U gave a self-cleavage of 0.234. Work on C48G G56A yielded a self-cleavage of 0.124. For C48G G56C, the self-cleavage was 0.922. Variant A47U U53G has a self-cleavage of 0.108. In the case of A47U A61C, the self-cleavage is reported as 0.243. Work on A47U A61G yielded a self-cleavage of 0.147.
